Results from US20230365681A1 (CELGENE, published 2023).
Substitutions are numbered along the chain they refer to. Blank lines part the entries; values can stand above or below the binder they belong to.

How the values were obtained:
human CD47 on cells [1] = biological target: T1, human CD47 on cells (human, UniProt Q08722 19-323); assay: cell-based or functional assay
[2] = biological target: T2, human CD47 extracellular domain (human, UniProt Q08722 19-139); assay: column HUMAN CD47 KD (µM); no assay named on the sheet, SPR with the CD47 ECD per Example 4
T2 construct: extracellular domain; also called human CD47 ECD; Hu CD47
T2 sequence (Q08722 19-139 limits assumed): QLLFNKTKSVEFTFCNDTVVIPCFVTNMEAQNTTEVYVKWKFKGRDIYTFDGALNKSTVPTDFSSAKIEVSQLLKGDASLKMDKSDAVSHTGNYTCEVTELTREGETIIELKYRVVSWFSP

[3] = biological target: T2, human CD47 extracellular domain; assay: method not given; human CD47, form not stated there
human CD47 on cells [4] = biological target: T1, human CD47 on cells; assay: blocking of human SIRPα binding to OCI-Ly3 cells; competitor SIRPα; TPP-23, parental high-affinity anti-CD47 IgG1; OCI-Ly3 cells

T1 sequence (Q08722 19-323): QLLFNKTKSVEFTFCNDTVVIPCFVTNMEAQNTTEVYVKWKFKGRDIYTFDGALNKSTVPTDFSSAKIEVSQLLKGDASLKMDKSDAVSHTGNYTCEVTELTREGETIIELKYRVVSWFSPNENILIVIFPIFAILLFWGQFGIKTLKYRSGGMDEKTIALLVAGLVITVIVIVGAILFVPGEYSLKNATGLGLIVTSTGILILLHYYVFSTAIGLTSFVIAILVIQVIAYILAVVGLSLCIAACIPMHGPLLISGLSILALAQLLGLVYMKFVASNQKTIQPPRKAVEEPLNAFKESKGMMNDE

EC50 of macrophage phagocytosis of OCI-Ly3 cells, OCI-Ly3 Mφ EC50 (µg/mL) REPEAT (human CD47 on cells [1]): 0.45 µg/mL | EC50 of macrophage phagocytosis of OCI-Ly3 cells, column OCI-Ly3 Mφ EC50 (human CD47 on cells [1]): 0.5 µg/mL | Kd [2]: 2530 nM
B1: TPP-1361 (bispecific antibody, human IgG1, kappa)
light 1: NIQMTQSPSSLSASVGDRVTITCQASQDIHRYLSWFQQDPGTVPQHLIYRESRFVDGVPSRFSGSGSGTEFTLTISSLQPEDFATYYCLQYDEFPYTFGGGTKVEIKRTVAAPSVFIFPPSDEELKSGTASVVCWLNNFYPREAKVQWKVDNALQSGNSEESVTEQDSKDSTYSLSSTLELSKADYEKHKVYACEVTHQGLSSPVTKSFNRGEC
heavy 1: QMQLVQSGAEVKKPGSSVKVSCKASGFNIKDYYLHWVRQAPGQGLEWMGWIDPDQGDTYYAQKFQGRVTITRDRSTSTAYMELASLTAEDTAVYYCNAAYGESSYPMDYWGQGTLVTVSSASTKGPSVFPLAPSSKSTSGGTAALGCLVKDYFPEPVTVSWNSGALTSGVHTFPAVLKSSGLYSLSSVVTVPSSSLGTQTYICNVNHKPSNTKVDKKVEPKSCDKTHTCPPCPAPELLGGPSVFLFPPKPKDTLMISRTPEVTCVVVDVSHEDPEVKFNWYVDGVEVHNAKTKPREEQYNSTYRVVSVLTVLHQDWLNGKEYKCKVSNKALPAPIEKTISKAKGQPREPQVYVLPPSREEMTKNQVSLLCLVKGFYPSDIAVEWESNGQPENNYLTWPPVLDSDGSFFLYSKLTVDKSRWQQGNVFSCSVMHEALHNHYTQKSLSLSPGK
light 2: QIVLSQSPAILSASPGEKVTMTCRASSSVSYIHWFQQKPGSSPKPWIYATSNLASGVPVRFSGSGSGTSYSLTISRVEAEDAATYYCQQWTSNPPTFGGGTKLEIKRTVAAPSVAIFPPSDERLKSGTASVVCVLNNFYPREAKVQWKVDNALQSGNSQESVTEQDSKDSTYSLSSRLTLSKADYEKHKVYACEVTHQGLSSPVTKSFNRGEC
heavy 2: QVQLQQPGAELVKPGASVKMSCKASGYTFTSYNMHWVKQTPGRGLEWIGAIYPGNGDTSYNQKFKGKATLTADKSSSTAYMQLSSLTSEDSAVYYCARSTYYGGDWYFNVWGAGTTVTVSAASTKGPSVFPLAPSSKSTSGGTAWLGCEVTDYFPEPVTVSWNSGALTSGVHTFPAVLESSGLYSLSSVVTVPSSSLGTQTYICNVNHKPSNTKVDKKVEPKSCDKTHTCPPCPAPELLGGPSVFLFPPKPKDTLMISRTPEVTCVVVDVSHEDPEVKFNWYVDGVEVHNAKTKPREEQYNSTYRVVSVLTVLHQDWLNGKEYKCKVSNKALPAPIEKTISKAKGQPREPQVYVYPPSREEMTKNQVSLTCLVKGFYPSDIAVEWESNGQPENNYKTTPPVLDSDGSFALVSKLTVDKSRWQQGNVFSCSVMHEALHNHYTQKSLSLSPGK
notes: Four-chain IgG1 heterodimer; also called CD47xCD20 bispecific

EC50 of macrophage phagocytosis of OCI-Ly3 cells, OCI-Ly3 Mφ EC50 (µg/mL) REPEAT (human CD47 on cells [1]): 0.046 µg/mL | EC50 of macrophage phagocytosis of OCI-Ly3 cells, column OCI-Ly3 Mφ EC50 (human CD47 on cells [1]): 0.064 µg/mL | Kd [2]: 430 nM
B2: TPP-1367 (bispecific antibody, human IgG1, kappa)
anti-CD47 light chain: B1 light 1 with Q24R, D39K, T42K, Q45K, E51A, S52N, F54L, D56S
anti-CD47 heavy chain: B1 heavy 1 with Q43K, A84R, T87R
anti-CD20 light chain: B1 light 2
anti-CD20 heavy chain: B1 heavy 2
notes: IgG1 1+1 heterodimer; also called CD47/CD20 TPP1367; CD47xCD20 bispecific

Kd [3]: 0.54 nM
B3: CC-90002 (antibody, V domains shown)
VH: QMQLVQSGAEVKKTGSSVKVSCKASGFNIKDYYLHWVRQAPGQALEWMGWIDPDQGDTEYAQKFQDRVTITRDRSMSTAYMELSSLRSEDTAMYYCNAAYGSSSYPMDYWGQGTTVTVSS
VL: NIQMTQSPSAMSASVGDRVTITCKASQDIHRYLSWFQQKPGKVPKHLIYRANRLVSGVPSRFSGSGSGTEFTLTISSLQPEDFATYYCLQYDEFPYTFGGGTKVEIK
notes: also called anti-CD47 monoclonal antibody CC-90002

IC50 (human CD47 on cells [4]): 0.11 nM
B4: TPP-23 (408_437 Fab with IgG1) (antibody, V domains shown)
VH: B3 VH with T14P, Q43K, A44G, D66G, M76T, S84R, S88A, M93V, T115L
VL: B3 VL with A10S, M11L, K24R
notes: The crystal structure was made with an anti-CD47 Fab of this antibody; also called parental CD47 mAb
